Results: patent US20020193575A1 (published 2002)

Target: T1, recombinant E. coli human IL4 (non-glycosylated) (human, UniProt P05112 25-153)
T1 sequence (looked up): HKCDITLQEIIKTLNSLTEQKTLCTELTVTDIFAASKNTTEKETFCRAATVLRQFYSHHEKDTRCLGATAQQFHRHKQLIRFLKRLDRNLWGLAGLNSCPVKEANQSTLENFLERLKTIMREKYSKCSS
Assay: cell-based or functional assay

B cell proliferation (3H thymidine), IC50: 0.047 nM
B1: humanized 3B9 (IgG1) (antibody, V domains shown)
VH: QVTLRESGPALVKPTQTLTLTCTFSGFSLSTSGMGVSWIRQPPGKGLEWLAHIYWDDDKRYNPSLKSRLTISKDTSRNQVVLTMTNMDPVDTATYYCARRETVFYWYFDVWGRGTPVTVSS
VL: IVMTQSPDSLAVSLGERATINCKASQSVDYDGDSYMNWYQQKPGQPPKLLIYAASNLESGVPDRFSGSGSGTDFTLTISSLQAEDVAVYYCQQSNEDPPRFGGGTKVEIKR
